Holding throughout (details): both partners purified
Experiment [1] addresses T1, GST-σ^(E 30–141) (B. subtilis, UniProt P06222 30-141).
T1 construct: also called fragment c; regions 2.1 through 2.4; source: E. coli, overproduced and partially purified; not shown: GST, N-terminal, kept
T1 sequence (looked up): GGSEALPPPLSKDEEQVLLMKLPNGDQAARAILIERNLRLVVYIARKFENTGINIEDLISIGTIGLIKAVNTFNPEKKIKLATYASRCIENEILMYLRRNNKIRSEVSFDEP
The experiment is described as follows: pull-down; GST or GST-σ^E fusions on glutathione beads incubated with CsfB-Strep II (100 nM); after washing, eluted proteins immunoblotted with anti-Strep II tag antibody. On the technique in general: Immunoblotting shows a protein as a band on a membrane.

Experiment [2] deals with T2, GST-σ^E fusion protein, lacking its pro region (sigma fragment a) (B. subtilis, UniProt P06222 30-239).
T2 construct: source: E. coli, overproduced and partially purified; not shown: GST, N-terminal, kept
T2 sequence (looked up): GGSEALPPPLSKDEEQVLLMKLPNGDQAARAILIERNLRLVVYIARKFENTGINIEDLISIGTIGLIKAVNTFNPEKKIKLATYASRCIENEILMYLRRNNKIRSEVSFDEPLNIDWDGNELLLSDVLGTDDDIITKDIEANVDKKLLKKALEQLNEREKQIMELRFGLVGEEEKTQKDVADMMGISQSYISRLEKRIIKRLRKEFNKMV
The experiment is described as above.

The target in experiment [3] is T3, GST-σ^(E 30–172) (B. subtilis, UniProt P06222 30-172).
T3 construct: σ^E of B. subtilis, residues 30-172, regions 2.1 through 3.1; also called fragment d; regions 2.1 through 3.1; source: E. coli, overproduced and partially purified; not shown: GST, N-terminal, kept
T3 sequence (looked up): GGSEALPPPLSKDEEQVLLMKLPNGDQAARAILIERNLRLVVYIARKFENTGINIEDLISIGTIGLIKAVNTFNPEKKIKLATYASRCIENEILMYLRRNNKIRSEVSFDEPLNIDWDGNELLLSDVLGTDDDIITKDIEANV
Described as above.

Experiment [4] has as its target T4, σ^E, untagged, lacking its pro-sequence (B. subtilis, UniProt P06222 30-239).
T4 construct: printed molecular weight 29 kDa; a tag was perhaps removed; also called purified σ^E; source: E. coli, overproduced, purified
T4 sequence (looked up): T2 sequence (looked up)
As to the kind of experiment: pull-down; Ni2+-NTA affinity chromatography: His6-CsfB held on the column, untagged purified σ^E or σ^K applied, eluted with an imidazole buffer, SDS-PAGE and Coomassie staining.

B1: CsfB-StrepII-tagged protein (natural protein, B. subtilis, UniProt P37534 1-64, looked up)
chain: MDETVKLNHTCVICDQEKNRGIHLYTKFICLDCERKVISTSTSDPDYAFYVKKLKSIHTPPLYS
notes: CsfB (Gin), anti-sigma factor of B. subtilis; source: E. coli, overproduced and partially purified; not shown: Strep II tag, C-terminal, kept
For the molecule B1, the binding result in experiment [1], in experiment [2] and in experiment [3] was “binds” throughout.

B2: His6-CsfB (natural protein, B. subtilis, UniProt P37534 1-64, looked up)
chain: B1 chain
notes: CsfB (Gin), anti-sigma factor of B. subtilis; the plasmid is described in S1 Text; also called purified CsfB; source: E. coli, overproduced, purified (Ni-NTA, Superdex 75); not shown: His6, N-terminal, kept
As for B2, the binding result in experiment [4] was “binds”.

These data come from article PMC4383634, “Dual-Specificity Anti-sigma Factor Reinforces Control of Cell-Type Specific Gene Expression in Bacillus subtilis” (PLoS Genetics, 2015).
